{"source": "paper PMC3115958", "about": "(2011)", "molecular_target": "wild type sortilin expressed in COS-7 cells (UniProt Q99523 78-831)", "sequence (Q99523 78-831)": "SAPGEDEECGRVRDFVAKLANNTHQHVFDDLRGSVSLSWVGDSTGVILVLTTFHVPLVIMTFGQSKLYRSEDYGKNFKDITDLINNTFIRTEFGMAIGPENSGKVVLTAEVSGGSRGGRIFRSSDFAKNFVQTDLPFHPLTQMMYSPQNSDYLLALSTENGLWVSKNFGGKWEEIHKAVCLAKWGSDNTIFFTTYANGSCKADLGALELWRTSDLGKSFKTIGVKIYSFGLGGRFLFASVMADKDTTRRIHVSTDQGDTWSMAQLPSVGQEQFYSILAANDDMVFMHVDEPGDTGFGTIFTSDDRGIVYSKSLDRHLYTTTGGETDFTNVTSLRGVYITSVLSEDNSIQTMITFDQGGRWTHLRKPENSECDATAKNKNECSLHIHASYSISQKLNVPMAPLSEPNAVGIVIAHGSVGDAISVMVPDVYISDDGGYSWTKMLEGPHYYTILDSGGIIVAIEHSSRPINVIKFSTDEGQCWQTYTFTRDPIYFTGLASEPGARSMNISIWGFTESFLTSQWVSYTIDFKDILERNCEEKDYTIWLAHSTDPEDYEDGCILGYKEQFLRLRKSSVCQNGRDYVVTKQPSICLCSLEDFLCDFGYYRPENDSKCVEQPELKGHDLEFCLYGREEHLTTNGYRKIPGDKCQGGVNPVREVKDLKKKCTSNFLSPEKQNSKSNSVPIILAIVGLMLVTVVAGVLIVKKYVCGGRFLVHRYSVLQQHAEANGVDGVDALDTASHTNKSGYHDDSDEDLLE", "data": [{"binder": "alkaline phosphatase tagged progranulin C100 (granulin E and its flanking region, aa 494-593) (domain or fragment) SCEKEVVSAQPATFLARSPHVGVKDVECGEGHFCHDNQTCCRDNRQGWACCPYRQGVCCADRRHCCPAGFRCAARGTKCLRREAPRWDAPLRDPALRQLL", "values": [{"measurement": "Kd", "result": 3, "unit": "nM"}]}]}
